Data published in EP1747015B1 (Janssen Biotech, Inc., dated 2012).

T1: murine Tissue Factor in murine brain extracts (murine, UniProt P20352 29-294)
T1 sequence (looked up): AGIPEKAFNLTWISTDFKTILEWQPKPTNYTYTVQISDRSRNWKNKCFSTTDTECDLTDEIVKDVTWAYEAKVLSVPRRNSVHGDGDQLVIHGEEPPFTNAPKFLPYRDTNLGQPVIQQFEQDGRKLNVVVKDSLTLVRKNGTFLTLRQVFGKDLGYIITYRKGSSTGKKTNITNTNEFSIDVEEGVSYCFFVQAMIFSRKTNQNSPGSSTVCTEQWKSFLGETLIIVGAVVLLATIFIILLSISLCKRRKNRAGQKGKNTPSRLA

T2: murine Tissue Factor on B6F10 melanoma cells (murine, UniProt P20352 29-294)
T2 construct: whole, on cells; also called cell-associated mTF
T2 sequence (looked up): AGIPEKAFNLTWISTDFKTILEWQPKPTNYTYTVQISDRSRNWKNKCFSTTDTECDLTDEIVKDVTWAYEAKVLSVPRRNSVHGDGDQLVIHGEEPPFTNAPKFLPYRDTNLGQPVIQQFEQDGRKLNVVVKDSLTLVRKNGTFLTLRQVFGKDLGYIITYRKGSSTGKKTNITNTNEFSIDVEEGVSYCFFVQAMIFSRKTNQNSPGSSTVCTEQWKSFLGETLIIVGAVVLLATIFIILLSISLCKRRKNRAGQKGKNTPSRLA


How the values were obtained:
[1] = molecular target: T1, murine Tissue Factor in murine brain …; assay: cell-based or functional assay
[2] = molecular target: T2, murine Tissue Factor on B6F10 melanoma …; assay: FACS on B6F10 melanoma cells that express mTF

Row | Binder | EC50 Conc. (ug/ml), inhibition of fibrin clot formation in human plasma [1] | EC50 [2]
1 | PHD103 Fab (Fab, V domains shown) VH: QVQLVQSGAEVKKPGESLKISCKGSGYSFSNSWIAWVRQMPGKGLEWMGGIIGPGHSYTKYSPSFQGQVTISADKSISTAYLQWSSLKASDTAMYYCARINMGYFDYWGQGTLVTVSS VL: DIELTQPPSVSVAPGQTARISCSGDSLGLKKFVSWYQQKPGQAPVLVIYDDSNRPSGIPERFSGSNSGNTATLTISGTQAEDEADYYCGTYDQTIGHDVVFGGGTKLTVLG | 63.3 µg/mL | 
2 | PHD127 Fab (Fab, V domains shown, Human HuCAL Fab; 8 (VH) and 9 (VL) for PHD127 are inferred from the order of the words and must be checked against the listing) VH: QVQLVQSGAEVKKPGESLKISCKGSYSFTNSWISWVRQMPGKGLEWMGIIDPDDSYTSYSPSFQGQVTISADKSISTAYLQWSSLKASDTAMYYCARGAGYGRMFGDVWGQGTLVTVSS VL: DIELTQPPSVSVAPGQTARISCSGDNLGSYYASWYQQKPGQAPVLVIYQDDNRPSGIPERFSGSNSGNTATLTISGTQAEDEADYYCGAYTYSTSWVFGGGTKLTVLG | 0.82 µg/mL | 4.35 nM

The next lines start with the values.

Row | EC50 Conc. (ug/ml), inhibition of fibrin clot formation in human plasma [1] | EC50 [2] | Binder
3 | 23.8 µg/mL |  | PHD104 Fab (Fab, V domains shown) VH: QVQLVQSGAEVKKPGESLKISCKGSYSFTSNWIGWVRQMPGKGLEWMGWIYPSDSMTRYSPSFQGQVTISADKSISTAYLQWSSLKASDTAMYYCARYLFGLFDNWGQGTLVTVSS VL: DIELTQPPSVSVAPGQTARISCSGDNLGSYYVSWYQQKPGQAPVLVIYNDNNRPSGIPERFSGSNSGNTATLTISGTQAEDEADYYCATYDSSTDVFGGGTKLTVLG
4 | 0.23 µg/mL |  | PHD126 Fab (Fab, V domains shown) VH: QVQLVQSGAEVKKPGESLKISCKGSYSFSNYWIGWVRQMPGKGLEWMGFIDPDDSDTNYSPSFQGQVTISADKSISTAYLQWSSLKASDTAMYYCARALYMQGGSFDSWGQGTLVTVSS VL: DIELTQPPSVSVAPGQTARISCSGDNLGSYYVSWYQQKPGQAPVLVIYRDTDRPSGIPERFSGSNSGNTATLTISGTQAEDEADYYCQSYDYGVSNQVFGGGTKLTVLG
